Experimental data taken from US20040265808A1, “Genes involved in osteogenesis, and methods of use” (priority 2001, published 2004).

What was measured:
C3H10T1/2 cells = test: Transient over-expression of candidate genes, cooperation with BMP2 by measurement of alkaline phosphatase; type: cell-based, mouse; parameters: key: +: positive or negative cooperation with BMP2; −: positive or negative cooperation with BMP2; settings: alkaline phosphatase
Description: (§1) Mouse cell lines representing different stages of osteoblastic differentiation, C2C12, C2H10T1/2, ST2 and MC3T3-E1, were grown in the presence of agents capable of the induction of osteoblastic differentiation in vitro such as BMP2 and Sonic Hedgehog or in the presence of TGF beta (negative control) or with serum alone. Primary cells derived from mouse calvaria were also cultured for 0, 2, 7 14 and 21 days and RNA prepared for each time point. For example, C3H10T ½ and C2C12 can be obtained from the ATCC (Manassas, Va., USA) under the collection numbers CCL-226 and CRL-1772, respectively.
(§2) The candidates genes are cloned in expression vectors and their ability to express a protein of the expected size verified by COS cells transient transfection. The genes are then transfected in C3H10T1/2 cells and/or C2C12 cells (transient over-expression) and positive or negative cooperation with BMP2 is evaluated by the measurement of alkaline phosphatase (enzymatic assay and TaqMan) at 48 hours. Controls of positive cooperation, recombinant Sonic Hedgehog, or negative cooperation, recombinant Noggin, are included in each test.

C2C12 cells = test: as above; type: cell-based, mouse; parameters: key: +: positive or negative cooperation with BMP2; −: positive or negative cooperation with BMP2
Description: as §1, §2

B1: 68 (nucleic acid, listed as Mus musculus)
chain: CGATCGATATGGTCACCCACAGCAAGTTTCCCGCCGCCGGGATGAGCCGCCCCCTGGACACCAGCCTGCGCCTCAAGACCTTCAGCTCCAAAAGCGAGTACCAGCTGGTGGTGAACGCCGTGCGCAAGCTGCAGGAGAGCGGATTCTACTGGAGCGCCGTGACCGGCGGCGAGGCGAACCTGCTGCTCAGCGCCGAGCCCGCGGGCACCTTTCTTATCCGCGACAGCTCGGACCAGCGCCACTTCTTCACGTTGAGCGTCAAGACCCAGTCGGGGACCAAGAACCTACGCATCCAGTGTGAGGGGGGCAGCTTTTCGCTGCAGAGTGACCCCCGAAGCACGCAGCCAGTTCCCCGCTTCGACTGTGTACTCAAGCTGGTGCACCACTACATGCCGCCTCCAGGGACCCCCTCCTTTTCTTTGCCACCCACGGAACCCTCGTCCGAAGTTCCGGAGCAGCCACCTGCCCAGGCACTCCCCGGGAGTACCCCCAAGAGAGCTTACTACATCTATTCTGGGGGCGAGAAGATTCCGCTGGTACTGAGCCGACCTCTCTCCTCCAACGTGGCCACCCTCCAGCATCTTTGTCGGAAGACTGTCAACGGCCACCTGGACTCCTATGAGAAAGTGACCCAGCTGCCTGGACCCATTCGGGAGTTCCTGGATCAGTATGATGCTCCACTTGCGGCCGCTT
For B1, the “Validation in vitro (coop over BMP2) C3H10T1/2” value (C3H10T1/2 cells) was “−” and the “Validation in vitro (coop over BMP2) C2C12” value (C2C12 cells) was “−”.
